In the DeepSol protein solubility set:

Test: soluble on expression in E. coli; label from the status in PepcDB or PDB records

Soluble on expression in E. coli, soluble:
MNKEALVQVAEEVRRATGLPVGWRDVERTLGALRATRDLWEAVRLSRVPLRFLVPIWEGLARRGLLRVEEGLDLLAEVPAPRPGEAACPACEGRGLVGERLPGRAAERFLAWAKERPEAIQDFDQGYVTPESTLARVALAWNWGDLEGKEVLVLGDDDLTGLAAALTGLPKRVVVLDADPRIVRFLERAAKAEGLPLEAHVHDLREPLPEAWVHAFHTFFTDPVEGPLGLQAFVGRGLLALEGEGCAGYVGLTHVEASLAKWADFQRFLLENGAVITELRDGFHVYENWGYIEQMRAWPWLPVKRRPEKPWYTSALIRLELLRRADLENARVEGDLQDEEATTY
MKRLLLTLTFPLFFVGCASQNPTHMAFSPQVPDISQQTSRPVQISLDTIDSRNAEYVARFMEEGTKTRLVGPSEPPKLLLDEVFRNGFTQAGYQIDPSATNSIQVQLEELQMDVTKKTFGYEAKHSVRIAVQARNSSQELVKRYKAKGVLKGPLTPDFATLEMDMNKLLGQLTGEILNDPELNQFLQK
MSLRLERLNYNKIKIFLTLDDLTDRGLTKEDLWKDSFKVHQLFKDMMNEANTELGFEANGPIAVEVYSLQAQGMVVIVTKNQDADSEDDEYDDDYIEMQVKLDESADIIYQFHSFEDIIQLSESLQRIGITGGTVYHYDGQYFLSLEDLGSHTAEGVVAVLAEYGNPTTLTIYRLQEYGKLIMDGNAVETIQTHFSEGHHHHHH
SLAATGNASKPSLNSFYADGLGQLRNGLFSCFQPVFGYFGTKTTVEIEKSEDELWEIPFDAISELEWLGSGSQGAVFRGQLENRTVAVKKVNQLKETEIKHLRHLRHQNIIEFLGVCSKSPCYCIVMEYCSKGQLCTVLKSRNTITRELFAQWVKEIADGMHYLHQNKVIHRDLKSPNILISAEDSIKICDFGTSHMQKKMDSTMMSFCGTVSWMAPEMIKKQPCNEKVDVYSFGVVLWEMLTRETPYANIAQMAIIFGVGTNILSLPMPEEAPKGLVLLIKQCLSQKGRNRPSFSHIRQHWEIFKPELFEMTEEEWQLAWDSYREFAKCIQYPSTVTRDHGGPKSAFAMEEEIQRKRHEQLNHIKDIRNMYEMKLKRTNKMYDKLQGCFTELKLKESELAEWEKDLTER
MLTKGWDTISIVRQDSVNSDLAASWNSLDHEFSYTSDEGYACHGVFDCWSVINGGGGRLLRLRMPIRSGFFEASGTSRSLAGAVAIIEVTLSLLPQGNGQVQLKSAFLHKAGATQPLQGDEGGWLRGITLQDPDGSLGPFASVVLDCICNYLVEHPLQFTHTFATINFSKATAPEWARPRKCTYAYLDSGFLAIMAVCTERDISGLPLDIDVSGISQGGQSSYVLSPRMVLEHLVLPGLLQLYQGATAQDYRLDNTQMVNIPTLRMKAIKSGAIWYTPVVFAGCNPARMLGDFITVDYKGDCDLHAGIDMKWNGWLRMKLVLDGNTINFVKQSSDFRKEVHIPWYLAWLSPIVSLITHIVAAVISDDLISAIAARGGSVKADTIDCVSWSNDTHTASSSYLAEALVINYV

Soluble on expression in E. coli, not soluble:
MNERGMLVDPRFDAFFKLEQIDDYKYDGADTSPSTSNGLPETSNGGRLICDVCGDVAFGKHYGINACNGCKGFFRRSVWSRRQYSCRFGGDCPVVKEHRNVCRSCRLKKCFEVGMNPDSVQNERDRNAKNGGMGGPMSSPTQSSLCKELTISNGQIKRKRLRPETVEKTTQTDGKLEINDDFDFENMQQNPTPPGLLPLKIERISTPPSDLPVPMDFSIHSAVLDIEQKVFYNCPVAVDNSINATKTPITLPFEVVFRQPHLVCNRYPMRFSNTRVLTPEDLIDGWRRHFTYYSDWCHAMDEFKALSPEDQIVLAKKKIILHGWLVHAYYSYKSGCNGICFANGAAHLPEGGHPSITEFYKECMPRYLNYVIYPMHNFQMDDAEMVLIKCIMFFSSESGLSAAGRQIVSAAREKYLSALYNYGRANKCTTSAQATLRIAKFMIMLSAITSLTHLMNEGVHVTSLFNIIEFDELIQATHKTTPPQHSPPAPMG
MDSDEEILSSYSSLTVTSRNETTISTRDSASNAMPVVVVDDEIFEDASSDISILTKRQESSSIHLDRSKMRKAVHQDLCTHDQKILEPLFLRKCEPHRVRQGTAPPNVIPIQKVENVEANKKFTGHSALLVSLNTPTYCVRYLAANAVHTPKNVLIFASPLSYVRFVARPDPQRTNQSVFEDPSETVRLMMAPDVAKVAQKMLPKWQTVTFTLAFGKHVAVKYRIIEVRKQPVTYVKAKADRVKRVSTSTLYRTEPVQRVDYWRSFKSNELKLSTVEKNDPQIVKRVFLEQQSLNWDPSGVIGTEKEHHHKTIVKSKKIKTGEELNLMWQRTDFH
MAIFRDQAENHVEHDRSIEDRRRHRQLVEKSIKENLGDILSEESIIGETKNKKYKIPIRGIKEYQFIYGANNKGVTTGTGEERRGDRISSDKRKAISNNKAGNQEGKDIYETEITLEELMDYIVEDLDLPNLDRKKYSEIIVESAAKKRGYQKYGVRPRLAKKKTVMCKIARKQGKKRALREIGEEAEIGRFPFREDDLRYYKVKKHPKKESNAVMIFIMDVSGSMDNTKKYLARSFFFVLSRFIRRKYNNVAFEFISHTTTAKNVNEYEFFHKGESGGTYISSGINAAIDLIKEKYNPGVWNIYPFYASDGDNWSEDNEKAMEAVNEISDLSNMFGYIELLPSTYSTTMFYRFKKEISKENFVSVTVKEKKDLWNAIKYMLSEELQEKNKELEHHHHHH
MIMIFTSSCCDNLSIDEIIERAEKGDCEAQYIVGFYYNRDSAIDSPDDEKAFYWLKLAAEQGHCEAQYSLGQKYTEDKSRHKDNEQAIFWLKKAALQGHTFASNALGWTLDRGEAPNYKEAVVWYQIAAESGMSYAQNNLGWMYRNGNGVAKDYALAFFWYKQAALQGHSDAQNNLADLYEDGKGVAQNKTLAAFWYLKSAQQGNRHAQFQIAWDYNAGEGVDQDYKQAMYWYLKAAAQGSVGAYVNIGYMYKHGQGVEKDYQAAFEWFTKAAECNDATAWYNLAIMYHYGEGRPVDLRQALDLYRKVQSSGTRDVSQEIRETEDLLLEHHHHHH
MGSDKIHHHHHHMRLNPERPLLSGSCTQYLDWGLPIAMDAVGPGEARRILDRYGADRVLLVGPPGVGKSTVVRSYAEDSASREGLEFVDLSEARSLEDLDTDSTYAFLHIYAPLVRAEDLAFIARRGEGYDWTLPSRLAYLTRPGVRGLVFIDEITNVALPEVQTILFSMVLDKRVAYNRLSSGVEVVAAGNSPRDSPVSQWPPPPLLDRFRLLIRVKPPDLEEWVSWMNSVGRPWDRRVAAVLKVKPVLMYRPPEDEEDKFPTPRSWSQLAWELAKTGAHGDEAVRIAAMVVGRRAAEEARQFLQPDPASLDLSTFPRLDERERLTLLSVEAGRLASQDVVELCRTLEKVGSYGAHYAVWLLMLSGVDTVEAARSCSYVEDLLSRLSSYLG
MSLTQHTLWLLRFTYKQLKEKLTVSDSKKLFHEQFPYVIPGLYKRIVDEMLVELNLLNHQNEFIQDDLFCVGLTETFKELTKGYKPEEHLRVLFESLCNSSNFEPKKIKEASKKTLEVYKDKSLKEISILLKQKSDSNLYSSRIMNLGIYLIIANATDFKDIKDPEKNKIISDIINKLNLSFNKAEKDIGIYKSSILKMEQAKELLQEAKIKDKKEKEGHHHHHH
RAATQVGATTMDRPEWVAVHPDKKHVFCTLTNNKNRGKEGQPVGGPNPREKNNYGQIVRWMPAQGDHTSDVFAWDLYLIAGNPTVHKGTLYAGSENISADNMFNSPDGIGFDTAGRLWIQTDGNYSNQGDFAGQGNNQMLCGDPITGEVKRFLTGPIACEITGLTFSPDHKTMFVG
MSLTTLKCVMQWTWRKTPERTIEVHKKNVNALKLLLIGSPGREQSYTPRDKRSNMHFLKKLGDFQDLEHTVDALKDWHTREKADAVLGLGDMLGLPGATTVRDERFQKKWHDIFIKDAGLDIPWLMTLGDADSVLSPSSQIRYHYSVQQKNWHMPNDYYTVNFKFGANLTLANGMFEETAFNATVIAINTWDLFVGNPVANNMASWTNKLWWLSEQLYQATQKNSSWIIVMGHHPMLSTGTEGEQARLQNIDDLSKSRRSRGLESFLINTLFMHYQVDAYVSGHDHLMEYNSITDVDRNVTVEGHHHHHH
